The results in this text go back to publication PMC11184549 (ACS Infectious Diseases, 2024).

For the test, the target named is human IMPα1 lacking the IMPβ-binding domain (IMPαΔIBB) (human, UniProt P52292 70-529). Put plainly: fluorescence polarisation. For orientation: In fluorescence polarisation assays a small probe gives low polarisation when free and higher when bound to something large.

No end group written: not given here. *: point of attachment. FITC = O=C1OC2(c3ccc(O)cc3Oc3cc(O)ccc32)c2ccc(NC(=S)*)cc21; Ahx = NCCCCCC(=O)O

For {FITC-Ahx}-LWGFLSRNKKPRICTREEF [FITC-labeled DENV1 NS5 NLS_(Central) peptide], the dissociation constant Kd – broadly, the equilibrium constant for the complex coming apart – was over 700 nM.
